# In patent US20210388087A1 (Chugai, published 2021):
# Molecular target: T1, Human CD137 ECD (human)
# T1 construct: also called 4-1BB
# Experiment: single mutant vs template dBBDu183H
# T1 sequence (chain, as listed by the source limits assumed): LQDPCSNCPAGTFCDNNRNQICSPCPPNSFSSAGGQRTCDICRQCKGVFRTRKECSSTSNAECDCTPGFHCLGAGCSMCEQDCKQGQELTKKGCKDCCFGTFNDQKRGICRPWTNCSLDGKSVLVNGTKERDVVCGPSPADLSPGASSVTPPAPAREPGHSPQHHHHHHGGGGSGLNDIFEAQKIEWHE
row,Binder,fold change of affinity [fold]
1,"H183/L072 VH F27P (antibody, name in Kabat numbering, V domains shown) VH: QVQLVESGGGLVQPGRSLRLSCAASGPTFSNAWMHWVRQAPGKGLEWVAQIKDKGNAYAAYYAPSVKGRFTISRDDSKNSIYLQMNSLKTEDTAVYYCHYVHYASASTVLPAFGVDAWGQGTTVTVSS VL: DIVMTQSPLSLPVTPGEPASISCQASQELVHMNRNTYLHWYQQKPGQAPRLLIYKVSNRFPGVPDRFSGSGSGTDFTLKISRVEAEDVGVYYCAQGTSVPFTFGQGTKLEIK",0.3
2,"H183/L072 VH F27T (antibody, name in Kabat numbering, V domains shown) VH: QVQLVESGGGLVQPGRSLRLSCAASGTTFSNAWMHWVRQAPGKGLEWVAQIKDKGNAYAAYYAPSVKGRFTISRDDSKNSIYLQMNSLKTEDTAVYYCHYVHYASASTVLPAFGVDAWGQGTTVTVSS VL: DIVMTQSPLSLPVTPGEPASISCQASQELVHMNRNTYLHWYQQKPGQAPRLLIYKVSNRFPGVPDRFSGSGSGTDFTLKISRVEAEDVGVYYCAQGTSVPFTFGQGTKLEIK",0.3
3,"H183/L072 VH F100gM (antibody, name in Kabat numbering, V domains shown) VH: QVQLVESGGGLVQPGRSLRLSCAASGFTFSNAWMHWVRQAPGKGLEWVAQIKDKGNAYAAYYAPSVKGRFTISRDDSKNSIYLQMNSLKTEDTAVYYCHYVHYASASTVLPAMGVDAWGQGTTVTVSS VL: DIVMTQSPLSLPVTPGEPASISCQASQELVHMNRNTYLHWYQQKPGQAPRLLIYKVSNRFPGVPDRFSGSGSGTDFTLKISRVEAEDVGVYYCAQGTSVPFTFGQGTKLEIK",0.6
4,"H183/L072 VH F100gI (antibody, name in Kabat numbering, V domains shown) VH: QVQLVESGGGLVQPGRSLRLSCAASGFTFSNAWMHWVRQAPGKGLEWVAQIKDKGNAYAAYYAPSVKGRFTISRDDSKNSIYLQMNSLKTEDTAVYYCHYVHYASASTVLPAIGVDAWGQGTTVTVSS VL: DIVMTQSPLSLPVTPGEPASISCQASQELVHMNRNTYLHWYQQKPGQAPRLLIYKVSNRFPGVPDRFSGSGSGTDFTLKISRVEAEDVGVYYCAQGTSVPFTFGQGTKLEIK",1
5,"H183/L072 VH F27Q (antibody, name in Kabat numbering, V domains shown) VH: QVQLVESGGGLVQPGRSLRLSCAASGQTFSNAWMHWVRQAPGKGLEWVAQIKDKGNAYAAYYAPSVKGRFTISRDDSKNSIYLQMNSLKTEDTAVYYCHYVHYASASTVLPAFGVDAWGQGTTVTVSS VL: DIVMTQSPLSLPVTPGEPASISCQASQELVHMNRNTYLHWYQQKPGQAPRLLIYKVSNRFPGVPDRFSGSGSGTDFTLKISRVEAEDVGVYYCAQGTSVPFTFGQGTKLEIK",0.2
6,"H183/L072 VH G26A (antibody, name in Kabat numbering, V domains shown) VH: QVQLVESGGGLVQPGRSLRLSCAASAFTFSNAWMHWVRQAPGKGLEWVAQIKDKGNAYAAYYAPSVKGRFTISRDDSKNSIYLQMNSLKTEDTAVYYCHYVHYASASTVLPAFGVDAWGQGTTVTVSS VL: DIVMTQSPLSLPVTPGEPASISCQASQELVHMNRNTYLHWYQQKPGQAPRLLIYKVSNRFPGVPDRFSGSGSGTDFTLKISRVEAEDVGVYYCAQGTSVPFTFGQGTKLEIK",0.4
7,"H183/L072 VH F100gL (antibody, name in Kabat numbering, V domains shown) VH: QVQLVESGGGLVQPGRSLRLSCAASGFTFSNAWMHWVRQAPGKGLEWVAQIKDKGNAYAAYYAPSVKGRFTISRDDSKNSIYLQMNSLKTEDTAVYYCHYVHYASASTVLPALGVDAWGQGTTVTVSS VL: DIVMTQSPLSLPVTPGEPASISCQASQELVHMNRNTYLHWYQQKPGQAPRLLIYKVSNRFPGVPDRFSGSGSGTDFTLKISRVEAEDVGVYYCAQGTSVPFTFGQGTKLEIK",1.2
8,"H183/L072 VH F29M (antibody, name in Kabat numbering, V domains shown) VH: QVQLVESGGGLVQPGRSLRLSCAASGFTMSNAWMHWVRQAPGKGLEWVAQIKDKGNAYAAYYAPSVKGRFTISRDDSKNSIYLQMNSLKTEDTAVYYCHYVHYASASTVLPAFGVDAWGQGTTVTVSS VL: DIVMTQSPLSLPVTPGEPASISCQASQELVHMNRNTYLHWYQQKPGQAPRLLIYKVSNRFPGVPDRFSGSGSGTDFTLKISRVEAEDVGVYYCAQGTSVPFTFGQGTKLEIK",0.3
9,"H183/L072 VH F27S (antibody, name in Kabat numbering, V domains shown) VH: QVQLVESGGGLVQPGRSLRLSCAASGSTFSNAWMHWVRQAPGKGLEWVAQIKDKGNAYAAYYAPSVKGRFTISRDDSKNSIYLQMNSLKTEDTAVYYCHYVHYASASTVLPAFGVDAWGQGTTVTVSS VL: DIVMTQSPLSLPVTPGEPASISCQASQELVHMNRNTYLHWYQQKPGQAPRLLIYKVSNRFPGVPDRFSGSGSGTDFTLKISRVEAEDVGVYYCAQGTSVPFTFGQGTKLEIK",0.3
10,"H183/L072 VH F27W (antibody, name in Kabat numbering, V domains shown) VH: QVQLVESGGGLVQPGRSLRLSCAASGWTFSNAWMHWVRQAPGKGLEWVAQIKDKGNAYAAYYAPSVKGRFTISRDDSKNSIYLQMNSLKTEDTAVYYCHYVHYASASTVLPAFGVDAWGQGTTVTVSS VL: DIVMTQSPLSLPVTPGEPASISCQASQELVHMNRNTYLHWYQQKPGQAPRLLIYKVSNRFPGVPDRFSGSGSGTDFTLKISRVEAEDVGVYYCAQGTSVPFTFGQGTKLEIK",0.3
11,"H183/L072 VH F29I (antibody, name in Kabat numbering, V domains shown) VH: QVQLVESGGGLVQPGRSLRLSCAASGFTISNAWMHWVRQAPGKGLEWVAQIKDKGNAYAAYYAPSVKGRFTISRDDSKNSIYLQMNSLKTEDTAVYYCHYVHYASASTVLPAFGVDAWGQGTTVTVSS VL: DIVMTQSPLSLPVTPGEPASISCQASQELVHMNRNTYLHWYQQKPGQAPRLLIYKVSNRFPGVPDRFSGSGSGTDFTLKISRVEAEDVGVYYCAQGTSVPFTFGQGTKLEIK",0.3
12,"H183/L072 VH F29P (antibody, name in Kabat numbering, V domains shown) VH: QVQLVESGGGLVQPGRSLRLSCAASGFTPSNAWMHWVRQAPGKGLEWVAQIKDKGNAYAAYYAPSVKGRFTISRDDSKNSIYLQMNSLKTEDTAVYYCHYVHYASASTVLPAFGVDAWGQGTTVTVSS VL: DIVMTQSPLSLPVTPGEPASISCQASQELVHMNRNTYLHWYQQKPGQAPRLLIYKVSNRFPGVPDRFSGSGSGTDFTLKISRVEAEDVGVYYCAQGTSVPFTFGQGTKLEIK",0.1
13,"H183/L072 VH F29Y (antibody, name in Kabat numbering, V domains shown) VH: QVQLVESGGGLVQPGRSLRLSCAASGFTYSNAWMHWVRQAPGKGLEWVAQIKDKGNAYAAYYAPSVKGRFTISRDDSKNSIYLQMNSLKTEDTAVYYCHYVHYASASTVLPAFGVDAWGQGTTVTVSS VL: DIVMTQSPLSLPVTPGEPASISCQASQELVHMNRNTYLHWYQQKPGQAPRLLIYKVSNRFPGVPDRFSGSGSGTDFTLKISRVEAEDVGVYYCAQGTSVPFTFGQGTKLEIK",0.2
14,"H183/L072 VH F29W (antibody, name in Kabat numbering, V domains shown) VH: QVQLVESGGGLVQPGRSLRLSCAASGFTWSNAWMHWVRQAPGKGLEWVAQIKDKGNAYAAYYAPSVKGRFTISRDDSKNSIYLQMNSLKTEDTAVYYCHYVHYASASTVLPAFGVDAWGQGTTVTVSS VL: DIVMTQSPLSLPVTPGEPASISCQASQELVHMNRNTYLHWYQQKPGQAPRLLIYKVSNRFPGVPDRFSGSGSGTDFTLKISRVEAEDVGVYYCAQGTSVPFTFGQGTKLEIK",0.1
15,"H183/L072 VH F29T (antibody, name in Kabat numbering, V domains shown) VH: QVQLVESGGGLVQPGRSLRLSCAASGFTTSNAWMHWVRQAPGKGLEWVAQIKDKGNAYAAYYAPSVKGRFTISRDDSKNSIYLQMNSLKTEDTAVYYCHYVHYASASTVLPAFGVDAWGQGTTVTVSS VL: DIVMTQSPLSLPVTPGEPASISCQASQELVHMNRNTYLHWYQQKPGQAPRLLIYKVSNRFPGVPDRFSGSGSGTDFTLKISRVEAEDVGVYYCAQGTSVPFTFGQGTKLEIK",0.1
16,"H183/L072 VH F29L (antibody, name in Kabat numbering, V domains shown) VH: QVQLVESGGGLVQPGRSLRLSCAASGFTLSNAWMHWVRQAPGKGLEWVAQIKDKGNAYAAYYAPSVKGRFTISRDDSKNSIYLQMNSLKTEDTAVYYCHYVHYASASTVLPAFGVDAWGQGTTVTVSS VL: DIVMTQSPLSLPVTPGEPASISCQASQELVHMNRNTYLHWYQQKPGQAPRLLIYKVSNRFPGVPDRFSGSGSGTDFTLKISRVEAEDVGVYYCAQGTSVPFTFGQGTKLEIK",0.3
17,"H183/L072 VH F27R (antibody, name in Kabat numbering, V domains shown) VH: QVQLVESGGGLVQPGRSLRLSCAASGRTFSNAWMHWVRQAPGKGLEWVAQIKDKGNAYAAYYAPSVKGRFTISRDDSKNSIYLQMNSLKTEDTAVYYCHYVHYASASTVLPAFGVDAWGQGTTVTVSS VL: DIVMTQSPLSLPVTPGEPASISCQASQELVHMNRNTYLHWYQQKPGQAPRLLIYKVSNRFPGVPDRFSGSGSGTDFTLKISRVEAEDVGVYYCAQGTSVPFTFGQGTKLEIK",0.2
18,"H183/L072 VH F29V (antibody, name in Kabat numbering, V domains shown) VH: QVQLVESGGGLVQPGRSLRLSCAASGFTVSNAWMHWVRQAPGKGLEWVAQIKDKGNAYAAYYAPSVKGRFTISRDDSKNSIYLQMNSLKTEDTAVYYCHYVHYASASTVLPAFGVDAWGQGTTVTVSS VL: DIVMTQSPLSLPVTPGEPASISCQASQELVHMNRNTYLHWYQQKPGQAPRLLIYKVSNRFPGVPDRFSGSGSGTDFTLKISRVEAEDVGVYYCAQGTSVPFTFGQGTKLEIK",0.1
19,"H183/L072 VH F100gA (antibody, name in Kabat numbering, V domains shown) VH: QVQLVESGGGLVQPGRSLRLSCAASGFTFSNAWMHWVRQAPGKGLEWVAQIKDKGNAYAAYYAPSVKGRFTISRDDSKNSIYLQMNSLKTEDTAVYYCHYVHYASASTVLPAAGVDAWGQGTTVTVSS VL: DIVMTQSPLSLPVTPGEPASISCQASQELVHMNRNTYLHWYQQKPGQAPRLLIYKVSNRFPGVPDRFSGSGSGTDFTLKISRVEAEDVGVYYCAQGTSVPFTFGQGTKLEIK",0.5
20,"H183/L072 VH F27V (antibody, name in Kabat numbering, V domains shown) VH: QVQLVESGGGLVQPGRSLRLSCAASGVTFSNAWMHWVRQAPGKGLEWVAQIKDKGNAYAAYYAPSVKGRFTISRDDSKNSIYLQMNSLKTEDTAVYYCHYVHYASASTVLPAFGVDAWGQGTTVTVSS VL: DIVMTQSPLSLPVTPGEPASISCQASQELVHMNRNTYLHWYQQKPGQAPRLLIYKVSNRFPGVPDRFSGSGSGTDFTLKISRVEAEDVGVYYCAQGTSVPFTFGQGTKLEIK",0.3
21,"H183/L072 VH F27Y (antibody, name in Kabat numbering, V domains shown) VH: QVQLVESGGGLVQPGRSLRLSCAASGYTFSNAWMHWVRQAPGKGLEWVAQIKDKGNAYAAYYAPSVKGRFTISRDDSKNSIYLQMNSLKTEDTAVYYCHYVHYASASTVLPAFGVDAWGQGTTVTVSS VL: DIVMTQSPLSLPVTPGEPASISCQASQELVHMNRNTYLHWYQQKPGQAPRLLIYKVSNRFPGVPDRFSGSGSGTDFTLKISRVEAEDVGVYYCAQGTSVPFTFGQGTKLEIK",0.4
